Measurements from patent publication US20080306007A1, “AGENTS FOR PROPHYLAXIS OR TREATMENT OF NEUROLOGICAL RELATED DISEASES AND CONDITIONS” (Newcastle Innovation Limited, priority 2007, published 2008).
Where a chain is given by its changes, count along the chain named. Names and notes keep the numbering of the source.

B1: DynI-PB2-GFP: GFP-tagged dynamin I with Arg-772 and Arg-773 mutated to Glu; fails to bind syndapin I (protein)
chain: MGNRGMEDLIPLVNRLQDAFSAIGQNADLDLPQIAVVGGQSAGKSSVLENFVGRDFLPRGSGIVTRRPLVLQLVNSTTEYAEFLHCKGKKFTDFEEVRLEIEAETDRVTGTNKGISPVPINLRVYSPHVLNLTLVDLPGMTKVPVGDQPPDIEFQIRDMLMQFVTKENCLILAVSPANSDLANSDALKIAKEVDPQGQRTIGVITKLDLMDEGTDARDVLENKLLPLRRGYIGVVNRSQKDIDGKKDITAALAAERKFFLSHPSYRHLADRMGTPYLQKVLNQQLTNHIRDTLPGLRNKLQSQLLSIEKEVDEYKNFRPDDPARKTKALLQMVQQFAVDFEKRIEGSGDQIDTYELSGGARINRIFHERFPFELVKMEFDEKELRREISYAIKNIHGIRTGLFTPDLAFEATVKKQVQKLKEPSIKCVDMVVSELTSTIRKCSEKLQQYPRLREEMERIVTTHIREREGRTKEQVMLLIDIELAYMNTNHEDFIGFANAQQRSNQMNKKKTSGNQDEILVIRKGWLTINNIGIMKGGSKEYWFVLTAENLSWYKDDEEKEKKYMLSVDNLKLRDVEKGFMSSKHIFALFNTEQRNVYKDYRQLELACETQEEVDSWKASFLRAGVYPERVGDKEKASETEENGSDSFMHSMDPQLERQVETIRNLVDSYMAIVNKTVRDLMPKTIMHLMINNTKEFIFSELLANLYSCGDQNTLMEESAEQAQRRDEMLRMYHALKEALSIIGDINTTTVSTPMPPPVDDSWLQVQSVPAGEESPTSSPTPQRRAPAVPPARPGSRGPAPGPPPAGSALGGAPPVPSRPGASPDPFGPPPQVPSRPNRAPPGVPSRSGQASPSRPESPRPPFDL
modifications: left off: large carriers
B2: DynI-3B-GFP: GFP-tagged dynamin I point mutant P793A (site 3); fails to bind endophilin I (protein)
chain: B1 chain with E772R, E773R, P793A
modifications: left off: large carriers
B3: DynI^WT-GFP: Transfected GFP-tagged wild-type dynamin I (protein, UniProt Q05193 1-864, looked up)
Dynamin-1: MGNRGMEDLIPLVNRLQDAFSAIGQNADLDLPQIAVVGGQSAGKSSVLENFVGRDFLPRGSGIVTRRPLVLQLVNATTEYAEFLHCKGKKFTDFEEVRLEIEAETDRVTGTNKGISPVPINLRVYSPHVLNLTLVDLPGMTKVPVGDQPPDIEFQIRDMLMQFVTKENCLILAVSPANSDLANSDALKVAKEVDPQGQRTIGVITKLDLMDEGTDARDVLENKLLPLRRGYIGVVNRSQKDIDGKKDITAALAAERKFFLSHPSYRHLADRMGTPYLQKVLNQQLTNHIRDTLPGLRNKLQSQLLSIEKEVEEYKNFRPDDPARKTKALLQMVQQFAVDFEKRIEGSGDQIDTYELSGGARINRIFHERFPFELVKMEFDEKELRREISYAIKNIHGIRTGLFTPDMAFETIVKKQVKKIREPCLKCVDMVISELISTVRQCTKKLQQYPRLREEMERIVTTHIREREGRTKEQVMLLIDIELAYMNTNHEDFIGFANAQQRSNQMNKKKTSGNQDEILVIRKGWLTINNIGIMKGGSKEYWFVLTAENLSWYKDDEEKEKKYMLSVDNLKLRDVEKGFMSSKHIFALFNTEQRNVYKDYRQLELACETQEEVDSWKASFLRAGVYPERVGDKEKASETEENGSDSFMHSMDPQLERQVETIRNLVDSYMAIVNKTVRDLMPKTIMHLMINNTKEFIFSELLANLYSCGDQNTLMEESAEQAQRRDEMLRMYHALKEALSIIGDINTTTVSTPMPPPVDDSWLQVQSVPAGRRSPTSSPTPQRRAPAVPPARPGSRGPAPGPPPAGSALGGAPPVPSRPGASPDPFGPPPQVPSRPNRAPPGVPSRSGQASPSRPESPRPPFDL
modifications: GFP tag
notes: Transfected GFP-tagged wild-type dynamin I
B4: DynI-9A-GFP: GFP-tagged dynamin I R838E (site 9) mutant; abolishes amphiphysin I binding (protein, UniProt Q05193 1-864, looked up, variant R838E)
Dynamin-1: B3 Dynamin-1 with R838E
modifications: GFP tag
B5: DynI^dmA-GFP: Transfected GFP-tagged dynamin I double mutant, Ser-774 and Ser-778 to Ala (non-phosphorylatable) (protein)
chain: B1 chain with E772R, E773R, S774A, S778A
modifications: left off: large carriers
B6: DynI^dmE-GFP: Transfected GFP-tagged dynamin I double mutant, Ser-774 and Ser-778 to Glu (pseudo-phosphorylation) (protein)
chain: B1 chain with E772R, E773R, S774E, S778E
modifications: left off: large carriers

test system: cerebellar granule neurons (CGNs); test: FM4-64 synaptic vesicle recycling in transfected CGNs (Example 2); format: cell-based, rat; conditions: single 50 mM KCl stimulus
Procedure: The effect of overexpression of dynamin constructs on synaptic vesicle recycling in CGNs was monitored using the styryl dye FM4-64. Neurons were removed from the culture medium and left to repolarise for 10 min in incubation medium (170 mM NaCl, 3.5 mM KCl, 0.4 mM KH2PO4, 20 mM TES (N-tris[hydroxy-methyl]-methyl-2-aminoethane-sulphonic acid), 5 mM NaHCO3, 5 mM glucose, 1.2 mM Na2SO4, 1.2 mM MgCl2, 1.3 mM CaCl2, pH 7.4). Neurons were then loaded with FM4-64 by evoking SV recycling using KCl stimulation medium (incubation medium supplemented with 50 mM KCl and 10 μM FM4-64, 50 mM NaCl being removed to maintain osmolarity) for 2 min. Cells were washed with incubation medium and mounted on an epifluorescence microscope (Olympus IX81). After 10 min, FM4-64 was unloaded from the cells by exposure to a 30 s pulse of stimulation medium. Transfected neurons were visualised using a Olympus Plan-Apochromat x40 objective at 480 nm excitation and a band-pass emission filter of 515-555 nm. FM4-64 unloading was monitored at 555 nm excitation and a long pass emission filter of 600 nm. The decrease in fluorescence intensity of FM4-64 loaded nerve terminals on stimulation was visualised using a Hammamatsu Orca-ERG CCD digital camera (Hammamatsu City, Japan) and Metamorph 6.3 imaging software (Molecular Devices, Downingtown, Pa.). The extent of FM4-64 unloading was quantified by normalising the fluorescence value at the start of stimulation to an arbitrary value and monitoring the total decrease in fluorescence on unloading with the KCl stimulus. The kinetics of FM4-64 unloading were estimated by normalising the start and completion of unloading to 1 and 0 respectively. Other methods employed in this study are as described in Example 1.
Synaptic vesicle turnover in neurons transfected with DynI-WT-GFP was indistinguishable from that in untransfected neurons. […] The extent of synaptic vesicle turnover was quantified by unloading the terminals with a single 50 mM KCl stimulus, which is considered mild. The total synaptic vesicle recycling pool was unaffected in CGNs transfected with DynI-WT-GFP, while after transfection with DynI-2B-GFP it was reduced. The inhibition can be solely accounted for by an effect on SV endocytosis, since there was no effect on the kinetics of dye unloading. Next, the effects of DynI-PB2-GFP and DynI-3B-GFP on SVE were examined. These two mutants were chosen since they specifically fail to bind syndapin I and endophilin I, respectively, providing a clear distinction between them.
Again, there was no effect on exocytosis, indicating an inhibition of SVE.

| Molecule | total synaptic recycling pool (FM4-64) |
| --- | --- |
| B1 | 59.5±4.3 % of control |
| B2 | 56.8±4.4 % of control |
| B3 | 94.0±5.1 % of control |
| B4 | 71.9±2.7 % of control |

test system: cerebellar granule neurons (CGNs); test: FM4-64 SV turnover in transfected cerebellar granule neurons (Example 1); format: cell-based, rat; conditions: not given
Procedure: Primary cerebellar granule neuron (CGN) cultures were prepared from 7-day old Sprague-Dawley rat pups as previously described (Tan et al. 2003). In brief, neurons were plated on poly-D-lysine coated glass coverslips at a density of 1.5×10^5 cells/coverslip. Neurons were cultured in MEM containing Earle's salts plus 10% (v/v) foetal calf serum, 25 mM KCl, 30 mM glucose, 2 mM glutamine, 100 U/ml penicillin and 100 μg/ml streptomycin at 37° C., in a humidified atmosphere of 5% CO2. The culture medium was supplemented with 10 μM cytosine arabinoside after 24 hours. Transfections were carried out using an established calcium phosphate precipitation protocol. CGNs were transiently transfected with 1.5 μg of DNA between 7-10 days in vitro and were used 48 h later.
The effect of overexpression of dynamin I-GFP constructs on SV recycling in CGNs was monitored using the styryl dye FM4-64 (Molecular Probes). The extent of FM4-64 loading was quantified by normalising the fluorescence value at the start of stimulation to an arbitrary value and monitoring the total decrease on unloading with a dual KCl stimulus. The rate of FM4-64 unloading (as a measure of SV exocytosis) was estimated by determining the time taken for individual nerve terminals to lose 50% of their dye content on stimulation of unloading. These values were normalised to untransfected nerve terminals within the same field of view. SV exocytosis and recycling was also monitored using the pH-sensitive VAMP-GFP (synaptopHluorin). Dynamin constructs linked to mCerulean rather than to GFP were used in this part of the study. CGNs were co-transfected with synaptopHluorin and either DynI^WT-mCerulean, DynI^dmA-mCerulean or Dyn^dmE-mCerulean and stimulated with 50 mM KCl for 20 sec. The evoked synaptopHluorin response was recorded at 500 nm excitation and 510-550 nm emission (mCerulean fluorescence was not detectable at this wavelength). Co-expression of dynamin I was confirmed by recording at 430 nm excitation. Responses were analysed by calculating the increased fluorescence of synaptopHluorin over baseline for individual nerve terminals and then normalising the maxima and minima to 1 and 0.
To show the key role of the phosphorylation sites by independent methods in cultured neurons their role in SV turnover in nerve terminals of CGNs transfected with dynamin I-GFP was examined. SV turnover in neurons transfected with DynI^WT-GFP was indistinguishable from that in untransfected neurons (FIG. 6a-c). […] The extent of HM4-64 accumulation and thus SV turnover, was quantified from the change in fluorescence (AF) by unloading the CGN terminals with two sequential KCl stimuli (S1 and S2) (FIG. 6j). The total SV recycling pool was reduced by approximately 70% in CGNs transfected with DynI^dmA-GFP (28±3.5% of control) and 40% with DynI^dmE-GFP (64.4±6.2% of control) (FIG. 6k). However, transfection of DynI^WT-GFP had no detectable effect (100.1±5.2% of control, FIG. 6k).

| Molecule | reduction of total SV recycling pool / SV turnover |
| --- | --- |
| B5 | approximately 70% |
| B6 | ~40% |

same assay, conditions: two sequential KCl stimuli

| Molecule | total SV recycling pool (FM4-64) |
| --- | --- |
| B5 | 28±3.5 % of control |
| B6 | 64.4±6.2 % of control |
| B3 | 100.1±5.2 % of control |
